What was measured:
[1] = biological target: human IgG from serum (human) [IgG part: P01857]; experiment: SPR; preparation #2
[2] = biological target: human IgG from serum (human) [IgG part: P01857]; experiment: SPR; preparation #1
[3] = biological target: human IgG from serum (human) [IgG part: P01857]; experiment: SPR

Row | Substance | Kd [1] | Kd [2] | Kd [3]
1 | protein G: β-galactosidase fusion protein (from UniProt P19909) | 41.8 nM | 33.4 nM | –
2 | protein G:HRP (from UniProt P19909) | – | – | 18.9 nM

From article PMC10078426
